The target of assay [1] is T1, full-length human Tau (htau40, 441 residues, 2N4R) (human, UniProt P10636-8 1-441).
T1 construct: 15N-labelled for the NMR titrations; also called 2N4R Tau; source: E. coli BL21 (DE3), vector pNG2, purified (boiling, SP-Sepharose)
As to the kind of experiment: NMR titration; 1H-15N spectra of 15N-labeled Tau (30-50 μM) with up to 5 equivalents of unlabeled partner, 5 °C, 50 mM sodium phosphate/10 mM NaCl/1 mM DTT pH 6.8. To be noted: both partners purified.

The next assay addresses T2, human full-length Hsp90β (human, UniProt P08238 1-724).
T2 construct: Human Hsp90β (heat-shock protein 90 beta), full length, dimer; For NMR, Ile δ1 methyl-labelled in a deuterated background or unlabelled; nothing is said for Hsp90; also called heat-shock protein 90; Hsp90 dimer; source: E. coli BL21 (DE3) or Rosetta 2 (DE3), purified (Ni-NTA, SEC)
The experiment in a line: paramagnetic NMR (pseudo-contact shifts); 80 μM Ile-labelled Hsp90 with 40 μM CLaNP-7-tagged FKBP51 mutant (Tm3+ against Lu3+), 25 °C, 50 mM sodium phosphate/300 mM NaCl pH 7.2 in D2O. To be noted: both partners purified.

Numbering of substitutions follows the chain as printed. Numbers in names are those of the source.

T1 sequence (P10636 other isoform, or with tags, fused parts or gaps): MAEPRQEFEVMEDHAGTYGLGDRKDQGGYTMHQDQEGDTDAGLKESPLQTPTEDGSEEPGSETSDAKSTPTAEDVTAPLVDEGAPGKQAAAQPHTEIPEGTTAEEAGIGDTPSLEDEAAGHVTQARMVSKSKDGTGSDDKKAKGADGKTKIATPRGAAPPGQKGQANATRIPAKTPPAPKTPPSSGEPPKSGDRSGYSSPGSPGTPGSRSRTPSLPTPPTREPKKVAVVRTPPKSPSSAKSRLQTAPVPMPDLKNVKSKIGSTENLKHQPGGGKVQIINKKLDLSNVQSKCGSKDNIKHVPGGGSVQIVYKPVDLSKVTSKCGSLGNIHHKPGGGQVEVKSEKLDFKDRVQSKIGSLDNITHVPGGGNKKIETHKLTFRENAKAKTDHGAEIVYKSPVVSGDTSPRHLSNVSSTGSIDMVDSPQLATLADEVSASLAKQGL
T2 sequence (P08238 whole entry): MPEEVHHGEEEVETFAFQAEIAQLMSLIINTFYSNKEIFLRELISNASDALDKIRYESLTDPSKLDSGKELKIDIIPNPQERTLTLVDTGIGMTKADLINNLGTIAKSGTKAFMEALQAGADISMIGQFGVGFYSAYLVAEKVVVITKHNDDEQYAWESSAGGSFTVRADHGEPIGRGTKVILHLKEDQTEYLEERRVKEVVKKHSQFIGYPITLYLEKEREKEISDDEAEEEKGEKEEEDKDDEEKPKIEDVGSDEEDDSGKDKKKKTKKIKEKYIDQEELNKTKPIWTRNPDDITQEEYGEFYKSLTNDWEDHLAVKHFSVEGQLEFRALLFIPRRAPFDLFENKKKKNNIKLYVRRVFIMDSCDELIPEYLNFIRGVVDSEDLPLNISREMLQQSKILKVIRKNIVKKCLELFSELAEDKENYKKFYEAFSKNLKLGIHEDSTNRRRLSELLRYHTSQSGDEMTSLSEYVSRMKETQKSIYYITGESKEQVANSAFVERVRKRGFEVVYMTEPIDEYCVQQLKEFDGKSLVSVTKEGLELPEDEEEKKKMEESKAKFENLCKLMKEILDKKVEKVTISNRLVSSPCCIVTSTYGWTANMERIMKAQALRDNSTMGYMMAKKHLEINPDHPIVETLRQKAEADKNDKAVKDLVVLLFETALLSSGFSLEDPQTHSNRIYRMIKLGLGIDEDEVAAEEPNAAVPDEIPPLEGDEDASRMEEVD

B1: full-length human FKBP51 (natural protein, UniProt Q13451 1-457, looked up)
chain: MTTDEGAKNNEESPTATVAEQGEDITSKKDRGVLKIVKRVGNGEETPMIGDKVYVHYKGKLSNGKKFDSSHDRNEPFVFSLGKGQVIKAWDIGVATMKKGEICHLLCKPEYAYGSAGSLPKIPSNATLFFEIELLDFKGEDLFEDGGIIRRTKRKGEGYSNPNEGATVEIHLEGRCGGRMFDCRDVAFTVGEGEDHDIPIGIDKALEKMQREEQCILYLGPRYGFGEAGKPKFGIEPNAELIYEVTLKSFEKAKESWEMDTKEKLEQAAIVKEKGTVYFKGGKYMQAVIQYGKIVSWLEMEYGLSEKESKASESFLLAAFLNLAMCYLKLREYTKAVECCDKALGLDSANEKGLYRRGEAQLLMNEFESAKGDFEKVLEVNPQNKAARLQISMCQKKAKEHNERDRRIYANMFKKFAEQDAKEEANKAMGKKTSEGVTNEKGTDSQAMEEEKPEGHV
notes: For NMR, Leu/Val or Ala/Met methyl-labelled or unlabelled; also called PPIase; source: E. coli BL21 (DE3) or Rosetta 2 (DE3), purified (Ni-NTA, HRV3C cut, SEC)
As to B1, the binding result in assay [1] was “binds”.

B2: CLaNP-7-tagged FKBP51 C176S/C183S/C215S/C339S/C394S/E110C (natural protein, human, UniProt Q13451 1-457, looked up)
chain: B1 chain with E110C, C176S, C183S, C215S, C339S, C394S
modifications: CLaNP-7 lanthanide tag (Tm3+ or Lu3+) attached to C107 and C110 (E110C) in FK1
notes: Human FKBP51, full length, with E110C and all cysteines other than C107 removed; also called FKBP51_(C176S/C183S/C215S/C339S/C394S/E110C)-CLaNP-7; source: E. coli, purified as the wild-type protein, tagged with CLaNP-7
As for B2, the binding result with human full-length Hsp90β was “binds”.

The record behind these values is paper PMC6208366, “Structure and pro-toxic mechanism of the human Hsp90/PPIase/Tau complex” (Nature Communications, 2018).
